{
  "source": "the DeepSol protein solubility set",
  "data": [
    {"assay": "soluble on expression in E. coli; label from the status in PepcDB or PDB records", "values": [
      {"sequence": "MHHHHHHHHHGGPISKILVANRSEIAIRVFRAANELGIKTVAIWAEEDKLALHRFKADESYQVGRGPHLARDLGPIESYLSIDEVIRVAKLSGADAIHPGYGLLSESPEFVDACNKAGIIFIGPKADTMRQLGNKVAARNLAISVGVPVVPATEPLPDDMAEVAKMAAAIGYPVMLKASWGGGGRGMRVIRSEADLAKEVTEAKREAMAAFGKDEVYLEKLVERARHVESQILGDTHGNVVHLFERDCSVQRRNQKVVERAPAPYLSEAQRQELAAYSLKIAGATNYIGAGTVEYLMDADTGKFYFIEVNPRIQVEHTVTEVVTGIDIVKAQIHILDGAAIGTPQSGVPNQEDIRLNGHALQCRVTTEDPEHNFIPDYGRITAYRSASGFGIRLDGGTSYSGAIITRYYDPLLVKVTAWAPNPLEAISRMDRALREFRIRGVATNLTFLEAIIGHPKFRDNSYTTRFIDTTPELFQQVKRQDRATKLLTYLADVTVNGHPEAKDRPKPLENAARPVVPYANGNGVKDGTKQLLDTLGPKKFGEWMRNEKRVLLTDTTMRDGHQSLLATRMRTYDIARIAGTYSHALPNLLSLECWGGATFDVSMRFLTEDPWERLALIREGAPNLLLQMLLRGANGVGYTNYPDNVVKYFVRQAAKGGIDLFRVFDCLNWVENMRVSMDAIAEENKLCEAAICYTGDILNSARPKYDLKYYTNLAVELEKAGAHIIAVKDMAGLLKPAAAKVLFKALREATGLPIHFHTHDTSGIAAATVLAAVEAGVDAVDAAMDALSGNTSQPCLGSIVEALSGSERDPGLDPAWIRRISFYWEAVRNQYAAFESDLKGPASEVYLHEMPGGQFTNLKEQARSLGLETRWHQVAQAYADANQMFGDIVKVTPSSKVVGDMALMMVSQDLTVADVVSPDREVSFPESVVSMLKGDLGQPPSGWPEALQKKALKGEKPYTVRPGSLLKEADLDAERKVIEKKLEREVSDFEFASYLMYPKVFTDFALASDTYGPVSVLPTPAYFYGLADGEELFADIEKGKTLVIVNQAVSATDSQGMVTVFFELNGQPRRIKVPDRAHGATGAAVRRKAEPGNAAHVGAPMPGVISRVFVSSGQAVNAGDVLVSIEAMKMETAIHAEKDGTIAEVLVKAGDQIDAKDLLAVYGG", "soluble on expression in E. coli": "soluble"},
      {"sequence": "MHERERHRIILSATQEKAVVTVQDIAELTDASEATIRRDIASLHVQGKLRRVRGGAEAVHPPQLGNLAARPFRVSESVNIDKKRAIARKAVDLCNDGDAIILNGGTTTFQMVHYMAARRLQVMTNSFAIAEHLVKHSKCNVNVPGGAIYRDQSLILSPFENDAIRNFYARRIFLGAQGVGALGIMESDALVIQSEQKLMRQAEELIVMVDSSKFRKRSSLILCPLENVTTIITDDGISDEAARMVENAGVELLIAGAVAAGKTAGPPDEENSSSVALEHHHHHH", "soluble on expression in E. coli": "not soluble"},
      {"sequence": "MTPLERYQADLKRPDFFHDSAQENAVRHLQRLYEDLVAAHDSKPGLFGKLFGKKEPTLVKGLYFWGGVGRGKTYLVDTFFEALPFQDKVRTHFHRFMKRVHEEMKTLKGERNPLTIIAKRFSDEARVICFDEFFVSDITDAMILGTLMEELFKNGVTLVATSNIVPDGLYKDGLQRARFLPAIALIKQNTDIVNVDSGVDYRLRHLEQAELFHFPLNDAAQESMRKSFKALTPDCAETVENDVLMIENREIRALRTCDDVAWFDFRELCDGPRSQNDYIELGKIFHAVLLSGVEQMDVSTDDIARRFINMVDEFYDRNVKLIISAEVELKDLYTGGRLMFEFQRTLSRLLEMQSHEFLSRAHRP", "soluble on expression in E. coli": "not soluble"},
      {"sequence": "MTTIASFPILQLPEKSLKIAIQSLTLEELIKFSLISKSTKRAAESLNLQADPFCDLY", "soluble on expression in E. coli": "not soluble"},
      {"sequence": "MSLHNNIDAFTLKPRHVEQIRQALPEVAITVSASDSDFMDRLPDAEYALVWVFKPEWYATAPRLKALFTPAAGRDWVAADPSGRVMTCHGSFHGRIMRESLLSMMLYFNRRLGQSLEDQGRRMWGRPDYSGCVGLFSQRVMIVGLGALGQSMAELLKAFGAHVTGVKRNPESFAGSPCVDRVISFDALEEALPEADHVVLLLPGGTATDGIFTARHFNAMRPGAYLYNLGRGNCYREEDLVAALEDGRLAGAGLDVFAEEPLPASSPLWEQRNVLITPHSSAISREYLDLFIQEWLETLRKGAPQNEGHHHHHH", "soluble on expression in E. coli": "not soluble"},
      {"sequence": "MGSDKIHHHHHHMTENKLIIGTAPDSWGVWFADDPKQTPWERFLDEVAESGYKWIELGPYGYLPNNPARLAEELKQRDLKVTAGTVFTAFHRGLDEWETAWEPARKVAELTAAMGGEHIVVIPAMWRDDVTGEAVESGQLTEKAWSDLFAGHNRLGKTLLEDFGLKQQFHSHADSHVGAQEDIESLLAATDSKYLNLCLDTGHAEYCGASSLELIKNYPDRIGYLHLKQINPDILKKVNEENMTWAAANLAGVMTEPPNGLPDLRAVIEAVEALNRPIFGIVEQDMYPVAFDVPMPIAKRTRNYLLSCGSRTAVN", "soluble on expression in E. coli": "not soluble"},
      {"sequence": "MGSDKIHHHHHHMPTLNQPQARFLALPHKFRAFVAGFGSGKTWVGGAGLCRHAWEFPRVNSGYFAPTYGQIRDIFYPTIEEVAHDWGLAAKINESNKEVHLFAGRKYRGTVICRSMEKPGDIVGFKIGKGLIDELDVMKADKAALAWRKIIARLRHTAPGLLNGVDVTTTPEGFKFVYQQFVKQVRERPELAALYGLVQASTYENGKNLPEDYIPSLRASYPPQLIAAYLRGQFTNLTSGSVYANFDRRLHHTDAAEEPHEELHIGMDFNVLNMTATVNVIRAGLPLTVGELTKVRDTPEMARMLKERFKDKGHGVTIYPDASGGNTSSKNASESDLSILRKAGFTVRVNSRNPSVKDRINAVNGMLLNDEGARRWLVNTDRCPTLTEALEQQVYDKNGEPDKSTGHDHPNDAQGYFLVHRYPITPTGMSRIKLTGT", "soluble on expression in E. coli": "not soluble"},
      {"sequence": "GPGSATTVHGETVVNGAKLTVTKNLDLVNSNALIPNTDFTFKIEPDTTVNEDGNKFKGVALNTPMTKVTYTNSDKGGSNTKTAEFDFSEVTFEKPGVYYYKVTEEKIDKVPGVSYDTTSYTVQVHVLWNEEQQKPVATYIVGYKEGSKVPIQFKASLDSTTLTVKKKVSGTGGDRSKDFNFGLTLKANQYYKASEKVMIEKTTKGGQAPVQTEASIDQLYHFTLKDGESIKVTNLPVGVDYVVTEDDYKSEKYTTNVEVSPQDGAVKNIAGNSTEQETSTDKDMTITFTNKKVFE", "soluble on expression in E. coli": "soluble"},
      {"sequence": "SSSNSEKEWHIVPVSKDYFSIPNDLLWSFNTTNKSINVYSKCISGKAVYSFNAGKFMGNFNVKEVDGCFMDAQKIAIDKLFSMLKDGVVLKGNKINDTILIEKDGEVKLKLIRGI", "soluble on expression in E. coli": "soluble"},
      {"sequence": "MSALIVSDIDGTLIDSRERIPSAVKESLAAAQRAGVSFVVATGRPARWIHPIIDQLYTPPTLCVCANGAVIYDPACDSITHRRELAPDAMRTVVRVAREALSDLGGCGVGVERAGVSAHDMPGELFMVTPDFVHSWESIEHSTVELDRVLARSAVKLLLRNDALTSEQMHRLVAPVVPADVAHVTYSMPDGLLEVMQPGVNKSSALDVVAQDLGVDPADAIAFGDMLNDLEMIRWAGTGVAMGNACDQLQRAADVVAPTNDEAGIAVVLREWLQG", "soluble on expression in E. coli": "not soluble"},
      {"sequence": "MCPFDVLASVKDDPSLSPQLREKIGGALTRLREICKTADQPSVAKALPRSCAHNYFKEMISGHAPLRFSCHSSESTHTRVKHFDIASSRLPGPIVMSSSKTLMQRTTPALQSPKEIFAELNVIAFQTLRYIDEVEQIEFDVTNVREHDGSIMEDKERLFLSVCCSVFANFSFFASLHINAEKFLHFLRKLFTCYPLDNSYHNATHAADALQMMSLFFREPTVNFLFSDEEIAICFLAVLAVDVAHPGASDTLLVALDHPLASVFGDVAITEHASLLVLTSLLVLEDNFFFSTPDMAVSVDSAHLLKEALYDVVLNAALRSRPSLMSALRDIETSGRITDADAPKLMAALLVMACNSFAFRSQAQCCRMGAWFLSELHREECEMERHGIRVTLPHVAGADCAAVLSDYINVVVKPVTAATLALVPRDLQDRLEWNADLVDAAASTGGRACKVVVENSLVQWMTSSLSVMEILKKVATHASSVDRKASKCAILNASPSRSQGTAPDMMRADSLSSNSSTSGSMSAAKRDEATSNCPQLSFTSEPCSAAGSPTARPGRSEHYFSFLRLYDKCERAGESAKNFVGQLIFLALQLDPRYIAAYARKEYGDDCCGAECAEMGLLISKMEEAPSTAEVIASRPPGGSFSNRVADEIDHTDSFVLLLMDMYCSREAALAEMESVVLVSDKAKTPPPAEPAAPKAVPQFQQNSPIRMPVNTESKNTGPRLRLVP", "soluble on expression in E. coli": "not soluble"},
      {"sequence": "MGSDKIHHHHHHMPQTAFIWDLDGTLIDSYEAIMEALAVTYRTFGFDFQAEPIRRYIIKESVGKLLDILAKQHGLSSEELKTFFIQEQVKRDDKIKLMPFAKEALQWAKDRGIKQFMYTHKGASTGAVLAELGIVSYFTEILTSVSGFERKPHPQGIFYLLEKYHLDRDRTYYIGDRRLDVEVAENAGIKSINLAQPQSAANQKIDNLQVLTQLKDF", "soluble on expression in E. coli": "not soluble"},
      {"sequence": "MNTSTTKPFAWPAHVFKEYDIRGRAGEELDESFAYWLGRAFADMMQKEGEKRAVVGHDNRLSSPGLHRALKDGLLDGGCDVVDIGLSTTPMFYYSLYYTNIPCGMIITASHNPGDENGFKIAMGKTTIYGERIQALRRAMERLSQEQPRPETARGREETLDLAPAYIKMLKEKIQLGPRKLKVVVDCGNGTPSIIAPQVLKEWGCDVVPLYCESDPTFPNHHPDPVVPENLTALIEMVRKEQADLGIAFDGDGDRIGVVDETGAIRWGDQLMVLFWREILKRYPGADAPVEVKCSQALVEEIERLGGKPFFHRTGHSHVKATLRRRPEIPFAGEMSGHLFFNDEFYGYDDALYAAGRLLRLLSHDERPLSEWFADVPRYAATPETRVACPEEKKPAAIAAVKNQFAGRYPVVDVDGARIQFPEGWGLVRPSNTQPILVLRAEAKTEEALAEIKRQLADCLHALELCIDW", "soluble on expression in E. coli": "soluble"},
      {"sequence": "MPSEPGKNMIQHAGLGYRRDLAEDFLSLSENSPICFIEAAPENWLKMGGWARKQFDRVAERLPLALHGLSMSLGGQAPLDTDLIDGIKEMMRRYDCTFFSDHLSYCHDGGHLYDLLPLPFTEEMVHHTARRIREVQDRLGCRIAVENTSYYLHSPLAEMNEVEFLNAVAREADCGIHLDVNNIYVNAVNHGLLSPEAFLENVDAERVCYIHIAGHDVETPELLIDTHGAAVLPTVWDLLELAYAKLPTIPPTLLERDFNFPPFSELEAEVAKIADYQTRAGKECRRAA", "soluble on expression in E. coli": "not soluble"},
      {"sequence": "MAENKLGRDIPRKYANQYGVFEGELAHIKSYKESSRQVKPVKPSDDKLLSSIHEAIEKTRLKDGMTISFHHHFREGDYVMNMVLDEIAKMGIKDISIAPSSIANVHEPLIDHIKNGVVTNITSSGLRDKVGAAISEGIMENPVIIRSHGGRARAIATDDIHIDVAFLGAPSSDAYGNANGTRGKTTCGSLGYAMIDAKYADQVVIVTDTLVPYPNTPISIPQTDVDYIVVVDAIGDPEGIAKGATRYTKNPKELLIAEYAAKVITSSPYYKEGFSFQTGTGGASLAVTRFMREQMIKDDIKANFALGGITNAMVELLEEGLVDKILDVQDFDHPSAVSLDRNAEKHYEIDANMYASPLSKGSVINQLDICVLSALEVDTNFNVNVMTGSDGVIRGASGGHCDTAFAAKMSLVISPLVRGRIPTFVDKVNTVITPGTSVDVVVTEVGIAINPNRPDLIEYFKDLKVPQLTIEELKEKAYAIVGNPQPIQYGDKIVALIEYRDGSLIDVVRNVLEHHHHHH", "soluble on expression in E. coli": "soluble"},
      {"sequence": "MGSDKIHHHHHHMDVMVRPSGMPAESGQEPMADGPVAAPFMRLSSKLRDDLYEEVRHDKTWHQRLTWSRGEWTPGSLTSLASRFERSLRWNKVKPEKENFDSPRPTIQSQSICREHLTGTAPEFLSEETLRILTEAVGSAQIKEAVIDMECWERTFLNSEGCSVTTQGKWFDFYASYNTGAALVRWRDGTSTQEEVSRLARPPLPILGRGVTWSEPRTIDTVRYDLVLLSPTASSVVIHELIGHGCEHFREKIVGLRVGPEELRVVAFPKNGSGFDDEGTPSEEIVLVENGIVRHAVRDRATGGMAPFSGLTKVASHGVKPGSRCTHLKAEGESSQEGVTGVPAERTVWIEHFSAANYHSGRAFFRSGLAWVGSREELLYPLMPFTMSIDIYELASLLWHLDGQTERARSGLCNKDGEFLPTFNFAPKIALRPVVSIRP", "soluble on expression in E. coli": "not soluble"}
    ]}
  ]
}
